From paper PMC10328077 (2023)

B1: FH402Y, isolated from plasma of FH402Y homozygous healthy donors (natural protein)
chain: EDCNELPPRRNTEILTGSWSDQTYPEGTQAIYKCRPGYRSLGNVIMVCRKGEWVALNPLRKCQKRPCGHPGDTPFGTFTLTGGNVFEYGVKAVYTCNEGYQLLGEINYRECDTDGWTNDIPICEVVKCLPVTAPENGKIVSSAMEPDREYHFGQAVRFVCNSGYKIEGDEEMHCSDDGFWSKEKPKCVEISCKSPDVINGSPISQKIIYKENERFQYKCNMGYEYSERGDAVCTESGWRPLPSCEEKSCDNPYIPNGDYSPLRIKHRTGDEITYQCRNGFYPATRGNTAKCTSTGWIPAPRCTLKPCDYPDIKHGGLYHENMRRPYFPVAVGKYYSYYCDEHFETPSGSYWDHIHCTQDGWSPAVPCLRKCYFPYLENGYNQNYGRKFVQGKSIDVACHPGYALPKAQTTVTCMENGWSPTPRCIRVKTCSKSSIDIENGFISESQYTYALKEKAKYQCKLGYVTADGETSGSITCGKDGWSAQPTCIKSCDIPVFMNARTKNDFTWFKLNDTLDYECHDGYESNTGSTTGSIVCGYNGWSDLPICYERECELPKIDVHLVPDRKKDQYKVGEVLKFSCKPGFTIVGPNSVQCYHFGLSPDLPICKEQVQSCGPPPELLNGNVKEKTKEEYGHSEVVEYYCNPRFLMKGPNKIQCVDGEWTTLPVCIVEESTCGDIPELEHGWAQLSSPPYYYGDSVEFNCSESFTMIGHRSITCIHGVWTQLPQCVAIDKLKKCKSSNLIILEEHLKNKKEFDHNSNIRYRCRGKEGWIHTVCINGRWDPEVNCSMAQIQLCPPPPQIPNSHNMTTTLNYRDGEKVSVLCQENYLIQEGEEITCKDGRWQSIPLCVEKIPCSQPPQIEHGTINSSRSSQESYAHGTKLSYTCEGGFRISEENETTCYMGKWSSPPQCEGLPCKSPPEISHGVVAHMSDSYQYGEEVTYKCFEGFGIDGPAIAKCLGEKWSHPPSCIKTDCLSLPSFENAIPMGEKKDVYKAGEQVTYTCATYYKMDGASNVTCINSRWTGRPTCRDTSCVNPPTVQNAYIVSRQMSKYPSGERVRYQCRSPYEMFGDEEVMCLNGNWTEPPQCKDSTGKCGPPPPIDNGDITSFPLSVYAPASSVEYQCQNLYQLEGNKRITCRNGQWSEPPKCLHPCVISREIMENYNIALRWTAKQKLYSRTGESVEFVCKRGYRLSSRSHTLRTTCWDGKLEYPTCAKR
B2: recombinant N-terminal fragment apoE2(1–165) (domain or fragment)
chain: KVEQAVETEPEPELRQQTEWQSGQRWELALGRFWDYLRWVQTLSEQVQEELLSSQVTQELRALMDETMKELKAYKSELEEQLTPVAEETRARLSKELQAAQARLGADMEDVCGRLVQYRGEVQAMLGQSTEELRVRLASHLRKLRKRLLRDADDLQKCLAVYQAG
modifications: NT647 dye (Monolith RED-NHS labelling kit) in the MST; unlabelled in the ELISA and the cross-linking

Assays:
[1] = target: B2; assay: MST
[2] = target: FH402H, isolated from plasma of FH402H homozygous healthy donors (human, UniProt P08603 19-1231, Y402H); assay: MST

Row | Binder | Kd [1] [nM] | Kd [2] [nM]
1 | B1 | 200 | 
2 | B2 |  | 400
